Target: T1, hEGFR-hIGg1Fc (SinoBiological) (human, UniProt P00533 25-645)
T1 construct: Bought reagent; also called human EGFR; human EGFR antigen; not shown: human IgG1 Fc
Assay: ELISA, coated hEGFR-hIgG1Fc

binding result | Binder
binds | aPDL1ScFv-L1-aEGFRL (bispecific antibody, also called aPDL1 scfv-aEGFR fusion) heavy: QVQLQESGPGLVKPSETLSLTCTVSGGSVSSGDYYWTWIRQSPGKGLEWIGHIYYSGNTNYNPSLKSRLTISIDTSKTQFSLKLSSVTAADTAIYYCVRDRVTGAFDIWGQGTMVTVSSASTKGPSVFPLAPSSKSTSGGTAALGCLVKDYFPEPVTVSWNSGALTSGVHTFPAVLQSSGLYSLSSVVTVPSSSLGTQTYICNVNHKPSNTKVDKKVEPKSCDKTHTCPPCPAPPVAGPSVFLFPPKPKDTLMISRTPEVTCVVVDVSHEDPEVKFNWYVDGVEVHNAKTKPREEQYNSTYRVVSVLTVLHQDWLNGKEYKCKVSNKGLPSSIEKTISKAKGQPREPQVYTLPPSRDELTKNQVSLTCLVKGFYPSDIAVEWESNGQPENNYKTTPPVLDSDGSFFLYSKLTVDKSRWQQGNVFSCSVMHEALHNHYTQKSLSLSPGK light: not shown
binds | aPDL1ScFv-L2-aEGFRL (bispecific antibody, also called aPDL1 scfv-aEGFR fusion) heavy: QVQLQESGPGLVKPSETLSLTCTVSGGSVSSGDYYWTWIRQSPGKGLEWIGHIYYSGNTNYNPSLKSRLTISIDTSKTQFSLKLSSVTAADTAIYYCVRDRVTGAFDIWGQGTMVTVSSASTKGPSVFPLAPSSKSTSGGTAALGCLVKDYFPEPVTVSWNSGALTSGVHTFPAVLQSSGLYSLSSVVTVPSSSLGTQTYICNVNHKPSNTKVDKKVEPKSCDKTHTCPPCPAPPVAGPSVFLFPPKPKDTLMISRTPEVTCVVVDVSHEDPEVKFNWYVDGVEVHNAKTKPREEQYNSTYRVVSVLTVLHQDWLNGKEYKCKVSNKGLPSSIEKTISKAKGQPREPQVYTLPPSRDELTKNQVSLTCLVKGFYPSDIAVEWESNGQPENNYKTTPPVLDSDGSFFLYSKLTVDKSRWQQGNVFSCSVMHEALHNHYTQKSLSLSPGK light: not shown

Source: US20210403575A1 (SHANGHAI YICHEN BIOMED, published 2021)
